# From patent US20110165161A1, “ANTI-EPCAM ANTIBODIES THAT INDUCE APOPTOSIS OF CANCER CELLS AND METHODS USING SAME” (priority 2009, published 2011)
# Residue numbers refer to the chain shown, from its start.
# T1: human EpCAM (epithelial cell adhesion/activating molecule) (human, UniProt P16422 24-314)
# T1 sequence: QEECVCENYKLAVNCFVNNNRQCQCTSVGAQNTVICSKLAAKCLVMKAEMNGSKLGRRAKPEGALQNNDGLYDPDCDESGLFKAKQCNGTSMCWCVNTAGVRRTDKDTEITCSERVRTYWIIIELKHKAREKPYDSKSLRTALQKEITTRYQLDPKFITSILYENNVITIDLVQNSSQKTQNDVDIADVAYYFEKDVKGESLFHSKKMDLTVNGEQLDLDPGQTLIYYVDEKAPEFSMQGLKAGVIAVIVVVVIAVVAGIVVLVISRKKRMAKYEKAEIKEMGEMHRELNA
# T2: EGFI-Cr1 Q24A (human, UniProt P16422 25-63)
# T2 construct: not shown: The fused constant region of human immunoglobulin gamma 1 heavy chain (Cr1)
# T2 chain: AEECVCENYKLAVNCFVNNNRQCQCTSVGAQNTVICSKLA
# T3: EGFI-Cr1 E25K (human, UniProt P16422 24-63)
# T3 construct: not shown: The fused constant region of human immunoglobulin gamma 1 heavy chain (Cr1)
# T3 chain: T2 chain with A1Q, E2K
# T4: EGFI-Cr1 E26D (human, UniProt P16422 24-63)
# T4 construct: not shown: The fused constant region of human immunoglobulin gamma 1 heavy chain (Cr1)
# T4 chain: T2 chain with A1Q, E3D
# T5: EGFI-Cr1 A35T (human, UniProt P16422 24-63)
# T5 construct: not shown: The fused constant region of human immunoglobulin gamma 1 heavy chain (Cr1)
# T5 chain: T2 chain with A1Q, A12T
# T6: EGFI-Cr1 N37R (human)
# T6 construct: not shown: The fused constant region of human immunoglobulin gamma 1 heavy chain (Cr1)
# T6 chain: T2 chain with A1Q, N14R
# T7: EGFI-Cr1 F39A (human, UniProt P16422 24-63)
# T7 construct: not shown: The fused constant region of human immunoglobulin gamma 1 heavy chain (Cr1)
# T7 chain: T2 chain with A1Q, F16A
# T8: EGFI-Cr1 V40E (human)
# T8 construct: not shown: The fused constant region of human immunoglobulin gamma 1 heavy chain (Cr1)
# T8 chain: T2 chain with A1Q, V17E
# T9: EGFI-Cr1 N41A (human, UniProt P16422 24-63)
# T9 construct: not shown: The fused constant region of human immunoglobulin gamma 1 heavy chain (Cr1)
# T9 chain: T2 chain with A1Q, N18A
# T10: EGFI-Cr1 N42E (human, UniProt P16422 24-63)
# T10 construct: not shown: the constant region of human immunoglobulin gamma 1 heavy chain (Cr1) fused at the C-terminus
# T10 chain: T2 chain with A1Q, N19E
# T11: EGFI-Cr1 N43A (human, UniProt P16422 24-63)
# T11 construct: not shown: the constant region of human immunoglobulin gamma 1 heavy chain (Cr1) fused at the C-terminus
# T11 chain: T2 chain with A1Q, N20A
# T12: EGFI-Cr1 R44G (human, UniProt P16422 24-63)
# T12 construct: not shown: the constant region of human immunoglobulin gamma 1 heavy chain (Cr1) fused at the C-terminus
# T12 chain: T2 chain with A1Q, R21G
# T13: EGFI-Cr1 Q45A (human, UniProt P16422 24-63)
# T13 construct: not shown: the constant region of human immunoglobulin gamma 1 heavy chain (Cr1) fused at the C-terminus
# T13 chain: T2 chain with A1Q, Q22A
# T14: EGFI-Cr1 Q47A (human, UniProt P16422 24-63)
# T14 construct: not shown: the constant region of human immunoglobulin gamma 1 heavy chain (Cr1) fused at the C-terminus
# T14 chain: T2 chain with A1Q, Q24A
# T15: EGFI-Cr1 T49A (human, UniProt P16422 24-63)
# T15 construct: not shown: the constant region of human immunoglobulin gamma 1 heavy chain (Cr1) fused at the C-terminus
# T15 chain: T2 chain with A1Q, T26A
# B1: murine monoclonal antibody 2D11 (antibody, mouse IgG1, V domains shown)
# VH: QIQLVQSGPELKKPGETVKISCKASGYTFTNYGMNWVKQAPGKGLKWMGWINTNTGEATYVEEFKGRVVFSLETSASTAYLQINNLKNEDTATYFCARIGYVWYFDVWGAGTTVTVSS
# VL: DIVMSQSPSSLAVSAGEKVTMSCKSSQSLFSSRTRKNYLAWYQQKPGQSPKLLIYWASTRESGVPDRFTGSGSGTDFTLTINSVQAEDLAVYYCKHSNNLFTFGSGTKLEIKR
# notes: Mouse IgG1, kappa, from hybridoma; also called m322-2D11.19
# How the values were obtained:
# [1] = target: T1, human EpCAM (epithelial cell …); experiment: cell-based or functional assay
# [2] = target: T1, human EpCAM (epithelial cell …); experiment: cell-based or functional assay; remark: listed apart in the source
# [3] = target: T1, human EpCAM (epithelial cell …); experiment: flow cytometry, CHO/EpCAM cells, 0.1 µg/ml antibody
# Method: A 300× dilution of human cell hyper-immune serum (HPS 300×) was used as binding positive control for both cell lines here. After 1 hr incubation at 4° C., cells were washed twice with 200 μl FACS buffer (1×PBS containing 1% FBS), stained with 100 μl of 1 μg/ml goat-anti-mouse IgG-PE (Southern Biotech, Cat. No. 1032-09) in FACS buffer and then incubated at 4° C. for 30 min. Cells were washed thrice with FACS buffer and analyzed by flow cytometry (BD LSR, BD Life Sciences).
# [4] = target: T16, EGFI-Cr1 wild type (first EGF-like repeat of human EpCAM fused to the constant region of human immunoglobulin … (human, UniProt P01857-1 99-330 = IgG part)); experiment: direct ELISA, coated EGFI-Cr1 fusion, 0.1 µg/ml antibody
# T16 construct: cDNA covered aa 1-63; Expressed in COS-7 cells; also called WT; EpCAM EGF-1 fusion protein WT
# Method: (§1) A direct ELISA was used for testing the reactivity of anti-EpCAM antibodies toward variant EpCAM mutants. Briefly, purified EpCAM EGF-1 fusion proteins (WT, Q24A, E25K, E26D, A35T, N37R, F39A, V40E, N41A, N42E, N43A, R44G, Q45A, Q47A or T49A) and irrelevant control (CEA-Cr1) were pre-diluted to 0.5 μg/ml in coating buffer (8.4 g NaHCO₃, 3.4 g Na₂CO₃ in 1 L H₂O, pH 9.5) and aliquoted (100 μl/well) into 96-well plates. […] Plates were then washed 3 times with PBST followed by the addition of the enzyme substrate TMB (BD Biosciences, Cat. No. 555214). […] The optical densities at 450 nm wavelength were measured on an ELISA plate reader.
# [5] = target: T2, EGFI-Cr1 Q24A; experiment: as above
# Method: as §1
# [6] = target: T3, EGFI-Cr1 E25K; experiment: as above
# Method: as §1
# [7] = target: T4, EGFI-Cr1 E26D; experiment: as above
# Method: as §1
# [8] = target: T5, EGFI-Cr1 A35T; experiment: as above
# Method: as §1
# [9] = target: T6, EGFI-Cr1 N37R; experiment: as above
# Method: as §1
# [10] = target: T7, EGFI-Cr1 F39A; experiment: as above
# Method: as §1
# [11] = target: T8, EGFI-Cr1 V40E; experiment: as above
# Method: as §1
# [12] = target: T9, EGFI-Cr1 N41A; experiment: as above
# Method: as §1
# [13] = target: T10, EGFI-Cr1 N42E; experiment: as above
# Method: as §1
# [14] = target: T11, EGFI-Cr1 N43A; experiment: as above
# Method: as §1
# [15] = target: T12, EGFI-Cr1 R44G; experiment: as above
# Method: as §1
# [16] = target: T13, EGFI-Cr1 Q45A; experiment: as above
# Method: as §1
# [17] = target: T14, EGFI-Cr1 Q47A; experiment: as above
# Method: as §1
# [18] = target: T15, EGFI-Cr1 T49A; experiment: as above
# Method: as §1
binder,measurement,setting,value
B1,"% Annexin V/PI-positive cells, DLD-1, 1.0 µg/ml mAb",[1],18%
same,"% Annexin V/PI-positive cells, DLD-1, 3.0 µg/ml mAb",[1],41%
same,"% Annexin V/PI-positive cells, DLD-1, 10 µg/ml mAb",[1],48%
same,"% Annexin V/PI-positive cells, FaDu, 1.0 µg/ml mAb",[1],34%
same,"% Annexin V/PI-positive cells, FaDu, 3.0 µg/ml mAb",[1],45%
same,"% Annexin V/PI-positive cells, FaDu, 10 µg/ml mAb",[1],46%
same,"% Annexin V/PI-positive cells, LNCaP, 1.0 µg/ml mAb",[1],40%
same,"% Annexin V/PI-positive cells, LNCaP, 3.0 µg/ml mAb",[1],39%
same,"% Annexin V/PI-positive cells, LNCaP, 10 µg/ml mAb",[1],40%
same,"% Annexin V/PI-positive cells, NCI-H520, 1.0 µg/ml mAb",[1],41%
same,"% Annexin V/PI-positive cells, NCI-H520, 3.0 µg/ml mAb",[1],44%
same,"% Annexin V/PI-positive cells, NCI-H520, 10 µg/ml mAb",[1],52%
same,"% Annexin V/PI-positive cells, NCI-N87, 1.0 µg/ml mAb",[1],45%
same,"% Annexin V/PI-positive cells, NCI-N87, 3.0 µg/ml mAb",[1],48%
same,"% Annexin V/PI-positive cells, NCI-N87, 10 µg/ml mAb",[1],51%
same,"% Annexin V/PI-positive cells, NIH:OVCAR-3, 1.0 µg/ml mAb",[1],43%
same,"% Annexin V/PI-positive cells, NIH:OVCAR-3, 3.0 µg/ml mAb",[1],55%
same,"% Annexin V/PI-positive cells, NIH:OVCAR-3, 10 µg/ml mAb",[1],56%
same,"% Annexin V/PI-positive cells, T-47D, 1.0 µg/ml mAb",[1],36%
same,"% Annexin V/PI-positive cells, T-47D, 3.0 µg/ml mAb",[1],48%
same,"% Annexin V/PI-positive cells, T-47D, 10 µg/ml mAb",[1],45%
same,"% of Annexin V + PI staining (untreated background subtracted), NCI-H358, 10 µg/ml mAb, Exp1",[2],41%
same,"% of Annexin V + PI staining (untreated background subtracted), NCI-H358, 10 µg/ml mAb, Exp2",[2],32%
same,"% of Annexin V + PI staining (untreated background subtracted), NCI-H358, 10 µg/ml mAb, Exp3",[2],47%
same,"% of Annexin V + PI staining (untreated background subtracted), NCI-H358, 10 µg/ml mAb, Exp4",[2],44%
same,"% of Annexin V + PI staining (untreated background subtracted), NCI-H358, 10 µg/ml mAb, Exp5",[2],33%
same,MFI,[3],3720 MFI
same,relative binding activity (% of WT),[4],100%
same,relative binding activity (% of WT),[5],99%
same,relative binding activity (% of WT),[6],93%
same,relative binding activity (% of WT),[7],97%
same,relative binding activity (% of WT),[8],95%
same,relative binding activity (% of WT),[9],94%
same,relative binding activity (% of WT),[10],97%
same,relative binding activity (% of WT),[11],93%
same,relative binding activity (% of WT),[12],12%
same,relative binding activity (% of WT),[13],58%
same,relative binding activity (% of WT),[14],5%
same,relative binding activity (% of WT),[15],7%
same,relative binding activity (% of WT),[16],89%
same,relative binding activity (% of WT),[17],96%
same,relative binding activity (% of WT),[18],95%
